This data set has as its system K562 CRISPRi cells. Briefly: Constant region variant library pooled growth screen, K562. The class given is cell-based, human. To be noted: sgRNA constant region variants; activity relative to the original, un-modified constant region cr995. In short, it runs like this: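 Cells were selected with puromycin for 2 days and then kept in RPMI-1640 spinner cultures, with duplicates handled separately. Targeting sequences comprised 3 sgRNAs per essential gene for 10 genes plus six non-targeting controls. Activities were normalized against pairing with the unmodified scaffold.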

B1: cr919 (nucleic acid)
guide: GTTTAAGAGCTAAGCTGGAAACAGCATAGCAAGTTTAAATAAGGCTAGTCCGTTATCACCTGGAAACAGGGGCACCGAGTCGGTGCT
modifications: listed as DNA, chemistry not fully specified
The molecule B1 yielded a Mean relative activity of 1.056.

B2: cr911 (nucleic acid)
guide: GTTTAAGAGCTAAGCTGGAAACAGCATAGCAAGTTTAAATAAGGCACGTCCGTTATCAACTTGAAAAAGTGGCACCGAATCGGTGCT
modifications: listed as DNA, chemistry not fully specified
For the molecule B2, the Mean relative activity is reported as 0.8101.

B3: cr931 (nucleic acid)
guide: GTTTAAGAGCTAAGCTGGAAACAGCATAGCAAGTTTAAATAAGGCTAGTCCGTTATCAACTTGAAAAAGTGGCCCTGAGTCAGGGCT
modifications: listed as DNA, chemistry not fully specified
For B3, the Mean relative activity amounted to 0.8044.

B4: cr516 (nucleic acid)
guide: GTTTAAGAGCTAAGCTGGAAACAGCATAGCAAGTTTAAATAAGCCTAGTGCGTTATCAGCTTGAAAAAGCGGCACCGAGTCGGTGCT
modifications: listed as DNA, chemistry not fully specified
Molecule B4 had a Mean relative activity of 0.8009.

B5: cr506 (nucleic acid)
guide: GTTTAAGAGCTAAGCTGGAAACAGCATAGCAAGTTTAAATAAGCCTAGTGCGTTATCAACTTGAAAAAGTGGGACCGAGTCGGTCCT
modifications: listed as DNA, chemistry not fully specified
The molecule B5 displayed a Mean relative activity of 0.8078.

B6: cr879 (nucleic acid)
guide: GTTTAAGAGCTAAGCTGGAAACAGCATAGCAAGTTTAAATAAGGCGAGTCCGTCAGCAACTTGAAAAAGTGGCACCGAGTCGGTGCT
modifications: listed as DNA, chemistry not fully specified
Consider B6, for which the Mean relative activity is given as 0.798.

B7: cr199 (nucleic acid)
guide: GTTTAAGAGCTAAGCTGGAAACAGCATAGCAAGTTTAAATAAGGCTAGTCCGTTATCAACTTGAGAAAGTGGCACCTAGTAGGTGCT
modifications: listed as DNA, chemistry not fully specified
B7 came in with a Mean relative activity of 0.7949.

B8: cr362 (nucleic acid)
guide: GTTTAAGAGCTAAGCTGGAAACAGCATAGCAAGTTTAAATAAGGCTAGTCCGTTATCAACTTGAAAAAGTGGCACAGAGTCGGTGCT
modifications: listed as DNA, chemistry not fully specified
B8 showed a Mean relative activity of 0.8214.

B9: cr104 (nucleic acid)
guide: GTTTAAGAGCTAAGCTGGAAACAGCATAGCAAGTTTAAATAAGGCTAGTCCGTTATCAACTTGAAAAAGTGGAACCGAGTCGGTGCT
modifications: listed as DNA, chemistry not fully specified
B9: the Mean relative activity came to 0.8063.

B10: cr391 (nucleic acid)
guide: GTTTAAGAGCTAAGCTGGAAACAGCATAGCAAGTTTAAATAAGCCTAGTGCGTTATCAACTTGAAAAAGTGGCAACGAGTCGTTGCT
modifications: listed as DNA, chemistry not fully specified
Molecule B10 gave a Mean relative activity of 0.8216.

B11: cr652 (nucleic acid)
guide: GTTTAAGAGCTAAGCTGGAAACAGCATCGCAAGTTTAAATAAGGCTAGTCCGGTATCAACTTGGAAAAGTGGCACCGAGTCGGTGCT
modifications: listed as DNA, chemistry not fully specified
With B11, the Mean relative activity was found to be 0.7959.

B12: cr697 (nucleic acid)
guide: GTTTAAGAGCTAAGCTGGAAACAGCATTGCAAGTTTAAATAAGGCGAGTCCGTTATCAACTTGCAAAAGTGGCACCGAGTCGGTGCT
modifications: listed as DNA, chemistry not fully specified
On to B12, for which the Mean relative activity is 0.8183.

B13: cr740 (nucleic acid)
guide: GTTTAAGAGCTAAGCTGGAAACAGCATAGCAAGTTTAAATAAGGCTAGTCCGTTATCAACTTGAAAAAGTGCCAGCGAGTCGCTGGT
modifications: listed as DNA, chemistry not fully specified
B13 registered a Mean relative activity of 0.8153.

B14: cr905 (nucleic acid)
guide: GTTTAAGAGCTAAGCTGGAAACAGCATAGCAAGTTTAAATAAGGCTAGTCCGTTATCAACTTGAAAAAGTGATACCAAGTTGGTATT
modifications: listed as DNA, chemistry not fully specified
Turning to B14, the Mean relative activity came out at 0.8019.

B15: cr470 (nucleic acid)
guide: GTTTAAGAGCTAAGCTGGAAACATCATAGCAAGTTTAAATAAGGCTAGTCCGTTATCAACTTGAAAAAGTGGCACCGAGTCGGTGCT
modifications: listed as DNA, chemistry not fully specified
Consider B15, for which the Mean relative activity is listed as 0.809.

B16: cr916 (nucleic acid)
guide: GTTTAAGAGCTAAGCTGGAAACAGCATAGCAAGTTTAAATAAGACTAGTTCGTTATCAACTTGAGAAAGTGGCACCGAGTCGGTGCT
modifications: listed as DNA, chemistry not fully specified
Take B16: the Mean relative activity was 0.8207.

B17: cr876 (nucleic acid)
guide: GTTTAAGAGCTAAGCTGGAAACAGCATAGCAAGTTTAAATAAGGCTAGTCCGTTATCAACTTGAAAAAGTGGCACCGAGTCAGTGCT
modifications: listed as DNA, chemistry not fully specified
B17 gave a Mean relative activity of 0.8037.

B18: cr818 (nucleic acid)
guide: GTTTAAGAGCTAAGCTGGAAACAGCATAGGAAGTTTAAATAAGGCTAGTCCGTTATCAACTTGAAAAAGTGGCACCGAGTCGGTGCT
modifications: listed as DNA, chemistry not fully specified
B18 returned a Mean relative activity of 0.7972.

B19: cr585 (nucleic acid)
guide: GTTTAAGAGCTAAGCTGGAAACAGCATAGCAAGTTTAAATAAGGCTAGTCCGTTATCAACTTGAAAAAGTGGCTCCGAGTCGGAGCT
modifications: listed as DNA, chemistry not fully specified
Consider B19, for which the Mean relative activity is listed as 1.056.

B20: cr394 (nucleic acid)
guide: GTTTAAGAGCTAAGCTGGAAACAGCATAGCAAGTTTAAATAAGGCTAGTCCGTTATCAACTTGAAACAGTGGCACCGAGTCGGTGCT
modifications: listed as DNA, chemistry not fully specified
Regarding B20, the Mean relative activity came out at 1.055.

B21: cr484 (nucleic acid)
guide: GTTTAAGAGCTAAGCTGGAAACAGCATAGCAAGTTTAAATAAGGCTAGTCCGTTATCAACTTGAAAAAGTGCCACCAAGTTGGTGGT
modifications: listed as DNA, chemistry not fully specified
For the molecule B21, the Mean relative activity worked out at 0.7978.

B22: cr601 (nucleic acid)
guide: GTTTAAGAGCTAAGCTGGAAACAGCATAGAAAGTTTAAATAAGGCTAGTCCGTTATCAACTTGAAAAAGTGGCACCGAGTCGGTGCT
modifications: listed as DNA, chemistry not fully specified
In turn, B22 gave a Mean relative activity of 0.8216.

B23: cr733 (nucleic acid)
guide: GTTTAAGAGCTAAGCTGGAAACAGCATAGCAAGTTTAAATAAGGCTAGTCCGTTATCAACTTGAAAAAGTGGCAAAGAGTCTTTGCT
modifications: listed as DNA, chemistry not fully specified
On to B23, for which the Mean relative activity stood at 0.807.

B24: cr621 (nucleic acid)
guide: GTTTAAGAGCTAAGCTGGAAACAGCATAGCAAGTTTAAATAAGACTAGTTCGTTATCAACGTGAAAACGTGGCACCAAGTTGGTGCT
modifications: listed as DNA, chemistry not fully specified
As to B24, the Mean relative activity turned out to be 0.818.

B25: cr805 (nucleic acid)
guide: GTTTAAGAGCTAAGCTGGAAACAGCATAGCAAGTTTAAATAGGGCTAGTCCGTTATCAACTTGATAAAGTGGCACCGAGTCGGTGCT
modifications: listed as DNA, chemistry not fully specified
B25: the Mean relative activity came out at 0.7927.

B26: cr420 (nucleic acid)
guide: GTTTAAGAGCTAAGCTGGAAACAGCATAGCAAGTTTAAATAAGGCTAGTCCGTTATCAACTTGAAAAAGTGTGACCTAGTAGGTCAT
modifications: listed as DNA, chemistry not fully specified
Regarding B26, the Mean relative activity is given as 0.8229.

B27: cr678 (nucleic acid)
guide: GTTTAAGAGCTAAGCTGGAAACAGCATAGCAAGTTTAAATAAGGCTAGTCCGTTATCAACTTGAAAAAGTGGCACCGAGTCGGTACT
modifications: listed as DNA, chemistry not fully specified
B27 came in with a Mean relative activity of 0.8081.

B28: cr215 (nucleic acid)
guide: GTTTAAGAGCTAAGCTGGAAACAGCATAGCAAGTTTAAATAAGGCTAGTCCGTTATCAACTTGAAAAAGTAGCACCGAGTCGGTGCT
modifications: listed as DNA, chemistry not fully specified
The molecule B28 came in with a Mean relative activity of 0.8059.

B29: cr517 (nucleic acid)
guide: GTTTAAGAGCTAAGCTGGAAACAGCATAGCAAGTTTAAATAAGGCTAGTCCGTTATCAACTTGAAAAAGTGGCACCGAGTCTGTGCT
modifications: listed as DNA, chemistry not fully specified
B29: the Mean relative activity is on record as 0.8173.

Values taken from patent US20220259593A1, “CONTROL OF MAMMALIAN GENE DOSAGE USING CRISPR” (The Regents of the University of California, priority 2019, published 2022).
